Among the data in article PMC2835542 are percent of cells labelled values, retold here.

For the assay, the target named is human epidermal growth factor receptor (EGFR), stably over-expressed on rat 9L gliosarcoma cells (human) (UniProt P00533). Nature of the assay: X-gal staining of live cells incubated with β-gal-labelled ligand complex.

The substance “EGF ligand-complex with full-length β-gal reporter (EGF-B-SA-B-β-gal)” yielded a percent of cells labelled of over 75%.
